These results are taken from article PMC12142464, “High-light-inducible proteins control associations between chlorophyll synthase and the Photosystem II biogenesis factor Ycf39” (Plant Physiology, 2025).

Several values for one entry are separate records, joined by “and”; a condition that tells them apart may be missing. Equal values may be shown once.

First the molecules themselves.
B1: High-light-inducible protein D (native) (natural protein, UniProt P72932 1-57, looked up)
chain: MSEELQPNQTPVQEDPKFGFNNYAEKLNGRAAMVGFLLILVIEYFTNQGVLAWLGLR
notes: High-light-inducible protein HliD (6.5 kDa), Synechocystis sp; PCC 6803; also called HliD; ScpE; source: endogenous, Synechocystis solubilised membranes

Holding throughout (details): partners not purified
Assay [1] deals with T1, 3xFLAG-tagged chlorophyll synthase ChlG (Synechocystis sp. PCC 6803, UniProt Q55145 1-324).
T1 construct: Chlorophyll synthase ChlG, Synechocystis sp; PCC 6803, made instead of the native enzyme; Isolated complexes carry chlorophyll and carotenoids; also called f.ChlG; FLAG-tagged ChlG
T1 sequence (looked up): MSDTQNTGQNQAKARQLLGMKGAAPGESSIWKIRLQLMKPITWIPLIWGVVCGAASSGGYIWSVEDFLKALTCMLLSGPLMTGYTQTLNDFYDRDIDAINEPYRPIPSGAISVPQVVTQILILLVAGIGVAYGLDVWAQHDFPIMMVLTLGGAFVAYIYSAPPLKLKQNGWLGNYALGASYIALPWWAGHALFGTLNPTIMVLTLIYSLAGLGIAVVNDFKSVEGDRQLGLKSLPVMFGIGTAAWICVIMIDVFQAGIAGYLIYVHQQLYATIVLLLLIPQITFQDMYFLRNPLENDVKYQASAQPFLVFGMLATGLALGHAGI
The assay can be described thus: affinity purification with mass spectrometry; f.ChlG anti-FLAG pulldown from f.chlG/ΔchlG cells, HL 16 h; quantitative MS with ^15N-labeled internal standard.

The target in assay [2] is T1, 3xFLAG-tagged chlorophyll synthase ChlG. The assay can be described thus: affinity purification with mass spectrometry; f.ChlG anti-FLAG pulldown from f.chlG/ΔchlG cells grown under NL; quantitative MS with ^15N-labeled internal standard.
The target is the same in assay [3]. Kind of assay: affinity purification with mass spectrometry; f.ChlG anti-FLAG pulldown from f.chlG/ΔchlG/ΔhliC cells, HL 16 h; quantitative MS with ^15N-labeled internal standard.
For assay [4] the target is unchanged. The assay can be described thus: affinity purification with mass spectrometry; f.ChlG anti-FLAG pulldown from f.chlG/ΔchlG/ΔhliC cells grown under NL; quantitative MS with ^15N-labeled internal standard.
Assay [5] shares this target. The assay can be described thus: co-IP; f.ChlG isolated with anti-FLAG resin from membranes solubilised with 1% n-dodecyl-β-D-maltoside and 1% glycol-diosgenin; eluate resolved by 2D CN (A8-35 amphipol)/SDS-PAGE, CBB stain; strains f.chlG/ΔchlG (HL 2 h), f.chlG/ΔchlG/ΔhliC (HL 2 h), f.chlG/ΔchlG/ΔhliC/Δycf39 (NL).
For assay [6], the target named is B1. The description is as above.

Take B1: the “stoichiometry N” value was 1.12 per 1 ChlG in assay [1]; 1.54 per 1 ChlG in assay [2]; 1.51 per 1 ChlG in assay [3]; 1.47 per 1 ChlG in assay [4]; ~1 HliD per f.ChlG (G-D2-G complex) and ~2 HliD per f.ChlG (G-D2 complex) in assay [5].

B2: High-light-inducible protein C (native) (natural protein, UniProt P73563 1-47, looked up)
chain: MNNENSKFGFTAFAENWNGRLAMIGFSSALILELVSGQGVLHFFGIL
notes: High-light-inducible protein HliC (5.2 kDa), Synechocystis sp; PCC 6803; also called HliC; ScpB; source: endogenous, Synechocystis solubilised membranes (high light)
As for B2, in assay [6], the “stoichiometry N” value was approximately 1 HliC per HliD.
